According to publication PMC2415180 (BMC Biotechnology, 2008):

How the values were obtained:
[1] = biological target: BChE/hSA fusion protein (recombinant human butyrylcholinesterase fused to human serum albumin) in the milk of transgenic goats (human) (UniProt P06276); experiment: SEC + native gel or EMSA
[2] = biological target: BChE/hSA fusion protein (recombinant human butyrylcholinesterase fused to human serum albumin) in the milk of transgenic mice (human) (UniProt P06276); experiment: SEC + native gel or EMSA
SEC = biological target: the molecule itself; experiment: SEC

Molecule: BChE/hSA fusion protein (recombinant human butyrylcholinesterase fused to human serum albumin) in the milk of transgenic goats (from UniProt P06276 29-602; P02768 25-609) (enzyme)
- stoichiometry N [1]: 2

Molecule: BChE/hSA fusion protein (recombinant human butyrylcholinesterase fused to human serum albumin) in the milk of transgenic mice (from UniProt P06276 29-602; P02768 25-609) (enzyme)
- stoichiometry N [2]: 2

B1: recombinant human butyrylcholinesterase produced transgenically in goat milk, tetramer-enriched preparation (>70% tetramer) (enzyme, UniProt P06276 29-602, looked up)
chain: EDDIIIATKNGKVRGMNLTVFGGTVTAFLGIPYAQPPLGRLRFKKPQSLTKWSDIWNATKYANSCCQNIDQSFPGFHGSEMWNPNTDLSEDCLYLNVWIPAPKPKNATVLIWIYGGGFQTGTSSLHVYDGKFLARVERVIVVSMNYRVGALGFLALPGNPEAPGNMGLFDQQLALQWVQKNIAAFGGNPKSVTLFGESAGAASVSLHLLSPGSHSLFTRAILQSGSFNAPWAVTSLYEARNRTLNLAKLTGCSRENETEIIKCLRNKDPQEILLNEAFVVPYGTPLSVNFGPTVDGDFLTDMPDILLELGQFKKTQILVGVNKDEGTAFLVYGAPGFSKDNNSIITRKEFQEGLKIFFPGVSEFGKESILFHYTDWVDDQRPENYREALGDVVGDYNFICPALEFTKKFSEWGNNAFFYYFEHRSSKLPWPEWMGVMHGYEIEFVFGLPLERRDNYTKAEEILSRSIVKRWANFAKYGNPNETQNNSTSWPVFKSTEQKYLTLNTESTRIMTKLRAQQCRFWTSFFPKVLEMTGNIDEAEWEWKAGFHRWNNYMMDWKNQFNDYTSKKESCVGL
notes: also called tetramer-enriched BChE; BChE produced transgenically (>70% tetramer)
- stoichiometry N (SEC): 4
